{"source": "patent US8530190", "about": "(MERCK SERONO, dated 2013)", "binders": {"B1": {"name": "CF101-109 (ligand)", "chain 1": "not shown", "chain 2": "SKEPLRPRCRPINATLAVEKEGCPVCITVNTTICAGYCPTMTRVLQGVLPALPQVVCNYRDVRFESIRLPGCPRGVNPVVSYAVALSCQCALCRRSTTDCTVRGLGPSYCDDPRFQDSSSSKAPPPSLPSPSRLPGPSDTPILPQ"}, "B2": {"name": "CFC101-114(αK51A-β) (ligand)", "chain 1": "not shown", "chain 2": "B1 chain 2 with D111S, D112F, P113G, R114E", "notes": "built on the mature α-subunit entry"}, "B3": {"name": "CFC101-114(αK51C-β) (ligand)", "chain 1": "not shown", "chain 2": "B1 chain 2 with D111S, D112F, P113G, R114E"}, "B4": {"name": "CFC101-114 (ligand)", "chain 1": "not shown", "chain 2": "B1 chain 2 with D111S, D112F, P113G, R114E", "notes": "also called bifunctional hCG/hFSH chimeric analog"}, "B5": {"name": "CFC101-114(α-βD99C) (ligand)", "chain 1": "not shown", "chain 2": "B1 chain 2 with D99C, D111S, D112F, P113G, R114E"}, "B6": {"name": "CFC101-114(α51-β99) (ligand)", "chain 1": "not shown", "chain 2": "B1 chain 2 with D99C, D111S, D112F, P113G, R114E", "notes": "Intersubunit disulfide αCys51-βCys99; also called CFC101(α51-β99)"}, "B7": {"name": "CFC101-114(α31-β37) (ligand)", "chain 1": "not shown", "chain 2": "B1 chain 2 with Y37C, D111S, D112F, P113G, R114E", "notes": "Intersubunit disulfide αCys31-βCys37"}, "B8": {"name": "hCG(αK51A-β) (ligand)", "chain 1": "not shown", "chain 2": "B1 chain 2 with T101G, V102G, R103P, G104K, L105D, G106H, S108L, Y109T", "notes": "as for B2"}, "B9": {"name": "hCG(α-βD99C) (ligand)", "chain 1": "not shown", "chain 2": "B1 chain 2 with D99C, T101G, V102G, R103P, G104K, L105D, G106H, S108L, Y109T", "notes": "also called hCG(α-β99)"}, "B10": {"name": "hCG(α31-β37, α51-β99) (ligand)", "chain 1": "not shown", "chain 2": "B1 chain 2 with Y37C, D99C, T101G, V102G, R103P, G104K, L105D, G106H, S108L, Y109T", "notes": "Two intersubunit disulfides; also called α(C7S,K51C) + hCGβ′(Y37C,D99C)"}, "B11": {"name": "hCG(α31-β37) (ligand)", "chain 1": "not shown", "chain 2": "B1 chain 2 with Y37C, T101G, V102G, R103P, G104K, L105D, G106H, S108L, Y109T", "notes": "Intersubunit disulfide αCys31-βCys37; also called hCG3(α31-β37); crosslinked hCG analog"}}, "key": {"[1]": {"biological_target": "T1, rat LH receptor (rat, UniProt P16235 27-700)", "T1 construct": "whole, on cells; also called LH receptors", "T1 sequence (P16235 27-700)": "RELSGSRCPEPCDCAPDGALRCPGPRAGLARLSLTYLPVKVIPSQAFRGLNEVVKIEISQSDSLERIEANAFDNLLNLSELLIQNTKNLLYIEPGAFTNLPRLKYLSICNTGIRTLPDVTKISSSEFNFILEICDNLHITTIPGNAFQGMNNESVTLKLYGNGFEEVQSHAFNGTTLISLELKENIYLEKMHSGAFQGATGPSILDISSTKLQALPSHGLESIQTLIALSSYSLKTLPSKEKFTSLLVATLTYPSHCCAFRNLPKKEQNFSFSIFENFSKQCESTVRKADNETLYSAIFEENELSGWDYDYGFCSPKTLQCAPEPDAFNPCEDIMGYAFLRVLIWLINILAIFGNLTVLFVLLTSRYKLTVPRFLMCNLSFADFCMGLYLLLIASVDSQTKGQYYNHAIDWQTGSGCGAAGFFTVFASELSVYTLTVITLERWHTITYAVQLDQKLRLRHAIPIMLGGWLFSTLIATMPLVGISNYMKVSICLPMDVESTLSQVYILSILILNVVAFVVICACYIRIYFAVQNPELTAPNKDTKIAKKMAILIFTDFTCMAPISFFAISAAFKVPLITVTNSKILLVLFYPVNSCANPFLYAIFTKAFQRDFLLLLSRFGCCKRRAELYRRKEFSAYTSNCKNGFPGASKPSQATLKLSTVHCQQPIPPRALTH", "test": "hormone-receptor complex formation (Table 1D)"}, "[2]": {"biological_target": "T2, human FSH receptor (human, UniProt P23945 18-695)", "T2 construct": "whole, on cells; also called hFSH receptors", "T2 sequence (looked up)": "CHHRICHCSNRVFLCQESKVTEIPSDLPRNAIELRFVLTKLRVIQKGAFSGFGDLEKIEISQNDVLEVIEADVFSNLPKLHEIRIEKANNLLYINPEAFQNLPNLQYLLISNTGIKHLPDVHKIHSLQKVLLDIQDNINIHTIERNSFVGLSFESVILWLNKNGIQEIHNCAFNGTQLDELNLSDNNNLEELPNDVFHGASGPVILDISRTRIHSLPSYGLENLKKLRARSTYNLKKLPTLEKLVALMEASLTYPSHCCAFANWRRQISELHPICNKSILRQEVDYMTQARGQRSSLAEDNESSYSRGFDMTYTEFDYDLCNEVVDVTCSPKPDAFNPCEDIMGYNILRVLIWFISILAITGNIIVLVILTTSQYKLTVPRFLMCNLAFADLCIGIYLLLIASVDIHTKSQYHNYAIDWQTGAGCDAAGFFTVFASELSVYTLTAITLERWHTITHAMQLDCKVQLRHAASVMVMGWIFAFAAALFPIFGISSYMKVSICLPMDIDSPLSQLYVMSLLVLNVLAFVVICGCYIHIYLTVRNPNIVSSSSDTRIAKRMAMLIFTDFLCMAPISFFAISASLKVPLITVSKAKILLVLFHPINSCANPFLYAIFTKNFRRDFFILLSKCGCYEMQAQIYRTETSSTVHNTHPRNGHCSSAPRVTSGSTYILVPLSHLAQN", "test": "hormone-receptor complex formation (Table 1D)"}, "[3]": {"biological_target": "T1, rat LH receptor", "test": "inhibition of radiolabeled hCG binding to LH receptors (FIG. 23)"}, "[4]": {"biological_target": "T1, rat LH receptor", "test": "inhibition of radiolabeled hCG binding to LH receptors (FIG. 22)"}, "[5]": {"biological_target": "T1, rat LH receptor", "test": "receptor binding and signal transduction assays"}, "[6]": {"biological_target": "T2, human FSH receptor", "test": "receptor binding and signal transduction assays"}, "[7]": {"biological_target": "T1, rat LH receptor", "test": "competition with radiolabeled hCG on CHO cells expressing LH receptors (FIG. 18)", "text": "(§1) These employed CHO cells that had been transfected with the genes encoding the LH receptor cDNA and that therefore express functional LH receptors on their surfaces."}, "[8]": {"biological_target": "T1, rat LH receptor", "test": "inhibition of 125I-hCG binding to CHO cells expressing LH receptors (FIG. 17)", "text": "as §1"}, "[9]": {"biological_target": "T1, rat LH receptor", "test": "inhibition of 125I-hCG binding to CHO cells expressing LH receptors (FIG. 30)", "text": "as §1"}, "[10]": {"biological_target": "T1, rat LH receptor", "test": "inhibition of 125I-hCG binding to 200,000 CHO cells that express LH receptors (FIG. 6)", "text": "as §1"}}, "note": "Positions count from the first letter of the chain named. Names and notes keep the numbering of the source."}
{"binder": "B1", "values": [{"measurement": "binding result", "setting": "[1]", "value": "binds"}, {"measurement": "binding result", "setting": "[2]", "value": "binds"}]}
{"binder": "B2", "values": [{"measurement": "binding result", "setting": "[3]", "value": "binds"}]}
{"binder": "B3", "values": [{"measurement": "binding result", "setting": "[4]", "value": "binds"}]}
{"binder": "B4", "values": [{"measurement": "binding result", "setting": "[5]", "value": "binds"}, {"measurement": "binding result", "setting": "[6]", "value": "binds"}]}
{"binder": "B5", "values": [{"measurement": "binding result", "setting": "[4]", "value": "binds"}]}
{"binder": "B6", "values": [{"measurement": "fold less active than CFC101-114 in inhibiting radiolabeled hCG binding", "setting": "[4]", "value": "~100", "unit": "fold"}]}
{"binder": "B7", "values": [{"measurement": "binding result", "setting": "[5]", "value": "binds"}, {"measurement": "binding result", "setting": "[6]", "value": "binds"}]}
{"binder": "B8", "values": [{"measurement": "binding result", "setting": "[7]", "value": "binds"}]}
{"binder": "B9", "values": [{"measurement": "binding result", "setting": "[8]", "value": "binds"}]}
{"binder": "B10", "values": [{"measurement": "binding result", "setting": "[9]", "value": "binds"}]}
{"binder": "B11", "values": [{"measurement": "binding result", "setting": "[10]", "value": "binds"}]}
